In article PMC4072508, “Genome-Wide Prediction and Validation of Peptides That Bind Human Prosurvival Bcl-2 Proteins” (PLoS Computational Biology, 2014) one finds SPOT signal as a fraction of Bim BH3's signal on the same receptor and array data, which are given here for 28 molecules.

Common to all, as to experiment: peptide SPOT array, c-Myc-tagged receptor at 1 uM or 100 nM, anti-c-Myc-Cy3
One experiment addresses Bcl-xL, Q07817.
The target of another experiment is T1, Mcl-1, Q07820.
T1 chain: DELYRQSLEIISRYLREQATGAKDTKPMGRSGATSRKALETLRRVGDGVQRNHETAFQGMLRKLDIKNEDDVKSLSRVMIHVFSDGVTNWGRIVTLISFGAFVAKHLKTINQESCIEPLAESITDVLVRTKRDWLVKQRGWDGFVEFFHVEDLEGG

The target of a further experiment is T2, Bfl-1, Q16548.
T2 chain: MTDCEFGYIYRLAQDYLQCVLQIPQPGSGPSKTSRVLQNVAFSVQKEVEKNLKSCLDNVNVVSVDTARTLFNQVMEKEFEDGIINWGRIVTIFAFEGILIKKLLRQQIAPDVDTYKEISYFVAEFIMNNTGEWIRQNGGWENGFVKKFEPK

Bcl-xL, Q07817, sequence (Q07817 1-209): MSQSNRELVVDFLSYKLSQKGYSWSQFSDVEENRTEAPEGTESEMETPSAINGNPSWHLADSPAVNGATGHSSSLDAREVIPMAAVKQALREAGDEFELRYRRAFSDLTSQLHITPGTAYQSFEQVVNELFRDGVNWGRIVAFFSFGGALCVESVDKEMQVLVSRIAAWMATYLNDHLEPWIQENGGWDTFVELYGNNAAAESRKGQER

Consider HQAEVQIARKDQCIADQFHRLHVQQH, for which the SPOT signal as a fraction of Bim BH3's signal on the same receptor and array was determined as 0.03 in the experiment with Bcl-xL, Q07817; 0.01 with Mcl-1, Q07820; 0.01 in the experiment with Bfl-1, Q16548.
On to LCQLSCVSKLDRDVCGSLLQSRGMVI [FBXO30], for which the SPOT signal as a fraction of Bim BH3's signal on the same receptor and array in the experiment with Bcl-xL, Q07817 is 0.14; with Mcl-1, Q07820, 0.08; in the experiment with Bfl-1, Q16548 it was 0.11.
Regarding GYPFNDVCQWDIDRADLIFVVFDPTK [SRL], the SPOT signal as a fraction of Bim BH3's signal on the same receptor and array with Bcl-xL, Q07817 turned out to be 0.07; with Mcl-1, Q07820, 0.06; with Bfl-1, Q16548, 0.05.
On to PSECETLGSNLGHNADLLNENNILAK [ZFP90], for which the SPOT signal as a fraction of Bim BH3's signal on the same receptor and array with Bcl-xL, Q07817 was 0.09; with Mcl-1, Q07820, 0.04; in the experiment with Bfl-1, Q16548 it was 0.03.
The like results for FSKREKLVEILRNILDERTMVFVETK [DDX4] were, in that order, 0.08, 0.15 and 0.08.
The like results for KKLKNLEGNELQRHADEFLLDLGHHE [FUT8] were, in that order, 0.12, 0.05 and 0.05.
As for LSIIYTLVEIDQNIGDTNLADFTAGL [SLC26A4], the SPOT signal as a fraction of Bim BH3's signal on the same receptor and array with Bcl-xL, Q07817 is 0.07; with Mcl-1, Q07820, 0.06; in the experiment with Bfl-1, Q16548, 0.03.
As for RVCPYYLSRNDKQQADIIFMPYNYLL [RTEL1], the SPOT signal as a fraction of Bim BH3's signal on the same receptor and array came to 1.3 in the experiment with Bcl-xL, Q07817; 1.1 with Mcl-1, Q07820; 0.67 with Bfl-1, Q16548.
The like results for VHKHSRLAEVDQLGSDILPQYKQEAP [KCNH1] were, in that order, 0.1, 0.13 and 0.06.
The like results for PVESSWIAPELRLQLDDILPLGKDSG were, in that order, 0.05, 0.04 and 0.04.
The like results for DDMFEPHSWNLKELLDDCFQQWGVRP [PRCP] were, in that order, 0.07, 0.04 and 0.05.
On to SHFVACMTAILNQMLDQHYSFYIETF [DOCK2], for which the SPOT signal as a fraction of Bim BH3's signal on the same receptor and array was found to be 0.08 with Bcl-xL, Q07817; 0.07 in the experiment with Mcl-1, Q07820; 0.06 with Bfl-1, Q16548.
On to SMRRNAMGVGDVFEADLFTTRHISHW [DNAH10], for which the SPOT signal as a fraction of Bim BH3's signal on the same receptor and array was determined as 0.12 with Bcl-xL, Q07817; 0.09 in the experiment with Mcl-1, Q07820; 0.09 with Bfl-1, Q16548.
For the molecule EAVTDGLKRADRSFGNALGNCILDKD [RAD52], the SPOT signal as a fraction of Bim BH3's signal on the same receptor and array in the experiment with Bcl-xL, Q07817 was found to be 0.05; with Mcl-1, Q07820, 0.04; with Bfl-1, Q16548 it was 0.03.
For the molecule FVGYNSTGAEDRHWSDMLANPRRPIA [SYT1], the SPOT signal as a fraction of Bim BH3's signal on the same receptor and array came to 0.11 in the experiment with Bcl-xL, Q07817; 0.08 with Mcl-1, Q07820; 0.07 in the experiment with Bfl-1, Q16548.
The like results for TRRSMVFARHDREVGDEFRSRHLNST [POFUT2] were, in that order, 0.85, 1.62 and 0.61.
As for PDKRLTLSQIYQYVLDNFPFYNKSKA [FOXI1], the SPOT signal as a fraction of Bim BH3's signal on the same receptor and array in the experiment with Bcl-xL, Q07817 turned out to be 0.76; with Mcl-1, Q07820, 0.39; in the experiment with Bfl-1, Q16548, 0.41.
Taken in the same sequence, the figures for IQENVDISTVDQIFADEVLGSGQFGI [PRKD3] were 0.07, 0.03 and 0.04.
The like results for VLELHPGAQRLHIGCDEVYYLGEGEA [HEXDC] were, in that order, 0.06, 0.05 and 0.05.
Regarding NDDTPWIARTLDNLADELTAILSAPA [GBP6], the SPOT signal as a fraction of Bim BH3's signal on the same receptor and array is 0.04 with Bcl-xL, Q07817; 0.04 in the experiment with Mcl-1, Q07820; 0.04 with Bfl-1, Q16548.
GGRVKLVHSALIQLGDSLSHKGNEFW [WDR60]: the SPOT signal as a fraction of Bim BH3's signal on the same receptor and array with Bcl-xL, Q07817 stood at 0.3; in the experiment with Mcl-1, Q07820, 0.34; with Bfl-1, Q16548, 0.36.
Taken in the same sequence, the figures for YIVLGLRKTTDQKVGKEVAELVGRVG [NLRX1] were 0.32, 0.24 and 0.19.
The like results for TVATRRLSGFDRTLADRLEGTKELLS [MINA] were, in that order, 0.29, 0.28 and 0.12.
For TGSLCEIATTLSFELDGFLWVKSGSV [CRB1], the SPOT signal as a fraction of Bim BH3's signal on the same receptor and array came to 0.07 with Bcl-xL, Q07817; 0.04 in the experiment with Mcl-1, Q07820; 0.03 with Bfl-1, Q16548.
Taken in the same sequence, the figures for AGYELLIQKFLSLYGDQIDMHRKFVV [ISOC1] were 0.13, 0.13 and 0.06.
The like results for PVESSWIAPEDRLQSDDILPLGKDSG were, in that order, 0.05, 0.04 and 0.04.
Taken in the same sequence, the figures for HQAEVQIARKLQCILDQFHRLHVQQH were 0.27, 0.1 and 0.1.
For the molecule MPYMEAVIHEIQRFLDVIPMSLARRV [CYP2A6], the SPOT signal as a fraction of Bim BH3's signal on the same receptor and array with Bcl-xL, Q07817 was found to be 0.14; with Mcl-1, Q07820, 0.08; in the experiment with Bfl-1, Q16548, 0.06.
